US20170121416A1 (AbbVie / Abbott, published 2017)
Read-outs that look alike come from different tables or passages of the source.

How the values were obtained:
[1] = molecular target: T1, human CD324 on cells (MCF7, BR22, NTX tumor cells, 293-hCD324) (human, UniProt P12830 155-882); assay: cell-based or functional assay
T1 sequence: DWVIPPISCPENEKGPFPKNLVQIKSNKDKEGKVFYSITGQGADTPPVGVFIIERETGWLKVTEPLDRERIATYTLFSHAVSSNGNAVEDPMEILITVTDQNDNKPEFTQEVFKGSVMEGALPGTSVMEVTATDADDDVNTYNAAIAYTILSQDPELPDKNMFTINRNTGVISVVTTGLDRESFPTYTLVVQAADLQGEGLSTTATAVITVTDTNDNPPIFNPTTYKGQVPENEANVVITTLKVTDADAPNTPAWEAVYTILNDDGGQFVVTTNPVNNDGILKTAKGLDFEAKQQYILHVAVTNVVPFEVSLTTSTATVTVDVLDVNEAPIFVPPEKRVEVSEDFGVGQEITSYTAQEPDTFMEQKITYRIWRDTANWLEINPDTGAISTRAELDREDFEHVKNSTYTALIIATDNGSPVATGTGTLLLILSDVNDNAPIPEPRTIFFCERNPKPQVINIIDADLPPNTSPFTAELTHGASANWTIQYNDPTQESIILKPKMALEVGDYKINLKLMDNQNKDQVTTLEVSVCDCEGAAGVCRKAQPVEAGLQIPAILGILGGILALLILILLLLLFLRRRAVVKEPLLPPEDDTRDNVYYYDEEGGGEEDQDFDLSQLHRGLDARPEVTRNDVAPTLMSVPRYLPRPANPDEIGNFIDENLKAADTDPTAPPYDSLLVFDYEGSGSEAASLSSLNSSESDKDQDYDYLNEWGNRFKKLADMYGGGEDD

[2] = molecular target: T1, human CD324 on cells (MCF7, BR22, NTX …); assay: cell-based or functional assay; remark: listed apart in the source
[3] = molecular target: T1, human CD324 on cells (MCF7, BR22, NTX …); assay: cell-based or functional assay; remark: listed apart in the source
[4] = molecular target: T2, mouse CD324 (Sino Biologics) (mouse, UniProt P09803 157-709, limits assumed); assay: direct ELISA on plate-coated mouse CD324 (Example 7, paragraph 375; paragraph 370 names ForteBio)
T2 construct: bought recombinant protein coated on the ELISA plate; also called murine CD324; mouse homolog
T2 sequence (looked up): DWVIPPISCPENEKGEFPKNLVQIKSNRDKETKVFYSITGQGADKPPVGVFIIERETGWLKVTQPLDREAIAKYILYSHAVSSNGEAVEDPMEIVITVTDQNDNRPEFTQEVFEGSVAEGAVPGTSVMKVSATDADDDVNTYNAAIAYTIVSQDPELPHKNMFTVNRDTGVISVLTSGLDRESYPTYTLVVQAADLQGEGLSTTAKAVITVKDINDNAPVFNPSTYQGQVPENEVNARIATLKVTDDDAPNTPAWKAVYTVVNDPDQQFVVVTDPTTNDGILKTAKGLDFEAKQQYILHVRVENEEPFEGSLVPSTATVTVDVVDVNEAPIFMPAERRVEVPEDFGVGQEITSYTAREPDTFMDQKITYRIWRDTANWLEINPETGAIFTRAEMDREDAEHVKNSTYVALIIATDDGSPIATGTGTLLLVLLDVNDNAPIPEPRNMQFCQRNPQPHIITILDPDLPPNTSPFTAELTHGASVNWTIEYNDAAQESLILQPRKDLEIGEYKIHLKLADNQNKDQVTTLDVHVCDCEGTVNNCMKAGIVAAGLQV

[5] = molecular target: T1, human CD324 on cells (MCF7, BR22, NTX …); assay: cell-based or functional assay; remark: listed apart in the source
[6] = molecular target: T1, human CD324 on cells (MCF7, BR22, NTX …); assay: cell-based or functional assay; remark: listed apart in the source
[7] = molecular target: T3, human CD324-His recombinant protein (Sino Biological, Inc.) (human, UniProt P12830 155-709); assay: SPR (Biacore), concentration series 25, 12.5 and 6.25 nM, 1:1 Langmuir binding model; murine parent antibody
T3 construct: bought soluble protein; The antigen of the Biacore experiment is only called human CD324 antigen; also called hCD324-His; human CD324 antigen; not shown: His tag
T3 sequence: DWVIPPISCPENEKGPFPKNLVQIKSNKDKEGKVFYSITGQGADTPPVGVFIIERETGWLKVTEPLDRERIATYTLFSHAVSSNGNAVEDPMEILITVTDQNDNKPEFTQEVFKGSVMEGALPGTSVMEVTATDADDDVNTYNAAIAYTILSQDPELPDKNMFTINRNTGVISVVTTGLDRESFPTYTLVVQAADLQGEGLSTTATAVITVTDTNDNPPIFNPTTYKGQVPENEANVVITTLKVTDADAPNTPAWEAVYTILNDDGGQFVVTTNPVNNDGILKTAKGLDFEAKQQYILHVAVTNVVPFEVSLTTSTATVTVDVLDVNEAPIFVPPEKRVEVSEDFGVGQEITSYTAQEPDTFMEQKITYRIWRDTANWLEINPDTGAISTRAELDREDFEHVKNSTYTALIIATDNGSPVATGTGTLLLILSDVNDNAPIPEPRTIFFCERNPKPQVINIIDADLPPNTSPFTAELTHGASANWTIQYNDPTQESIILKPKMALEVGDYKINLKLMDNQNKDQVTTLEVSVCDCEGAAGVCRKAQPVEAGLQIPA

[8] = molecular target: T1, human CD324 on cells (MCF7, BR22, NTX …); assay: cell-based or functional assay; remark: listed apart in the source

Binder	Normalized RLU at 10pM (MCF7, Fab-saporin) [1]	Normalized RLU at 100pM (MCF7, Fab-saporin) [1]	EC50 (MCF7, Fab-saporin killing) [2]	Percent live cells remaining at 10pM (MCF7, Fab-saporin) [3]	binding result [4]	EC50 (MCF7, Fab-saporin killing) [5]	EC50 of killing of MCF7 cells, Fab-saporin assay [6]	Kd [7]	EC50 (read off the curve) [8]
SC10.38 (antibody, V domains shown) VH: QVQLQQSGAELMKTGASVKISCKATGYTFSSYWIEWVKQRPGHGLEWIGEILPGSGKTNYNENFKGKATFTADTSSNTAYMQLSSLTSEDSVVYYCARRGAYYGNFDYWGQGTTLTVSS VL: DIQMNQSPSSLSASLGDTITITCHVSQNINVWLTWYQQKPGNIPKLLLYKASNLQTGVPSRFSGSGSGTGFTLTISSLQPEDIATYYCQQGQSYPFTFGSGTK	102	106	–	–	–	–	–	–	–
SC10.178 (antibody, V domains shown) VH: QILLVQSGPELKKPGETVKISCKANYTFTDYGMHWVKQAPGKGLKWMGWINPKTGVASYADDFKGRFAFSLETSASTAYLQINNLENEDTSIYFCARFFDYWGQGTTLTVSS VL: DIVLTQSPLSLLVSLGDQASISCRSSQSLVHSNGNTYLHWYLQKPGQSPNLLIFKVSNRFSGVPDRFSGSGSGTDFTLRISRVEAEDLGVYFCSQTTHVWTFGGGTKLEIK	68	38.1	3.1 pM	68%	–	–	–	–	–
SC10.17 (antibody, V domains shown, murine monoclonal antibody from hybridoma; also called murine SC10.17; mAb SC10.17) VH: DVQLVESGGGLVQPGGSRKLSCAASGFTFSSYGMHWVRQAPETGLEWVAYITTRSSTIYYAATVKGRFTISRDNARNTLFLQMTSLRSEDTAMYYCTREPLTGYYAMDYWGQGTSVTVSS VL: DVLMTQTPLSLPVSLGDQASISCRSSQSIVHSDGNTYLEWYLRKPGQSPRLLIYKVSNRFSGVPDRFSGSGSGTDFTLKISRVEAEDLGVYYCFQGSHAPWTFGGGTKLEIK	–	–	0.13 pM	32%	no binding	1.22 pM	1.2 pM	2000 pM	–
SC10.35 (antibody, V domains shown) VH: SDVQLQESGPGLVKPSQSLSLTCTVTDYSITSDYAWNWIRQFPGNNLEWMGNIGYSGDTSYNPSLKSRISITRDTSKNQFFLQLNSVTTEDSATYYCARSSLGPFDYWGQGTALTVSS VL: QIVLTQSPAIMSASPGERVTLTCSASSSVSSSFLYWYQQKSGSSPKLWIYSTSTLASGVPARFSGSGSGTSYSLTISSMEAEDAASYFCHQWSSYPWTFGGGTKLEIK	37.2	19.4	0.71 pM	–	–	–	–	–	~0.6 pM
SC10.168 (antibody, V domains shown) VH: SDVQLQESGPGLVKPSQSLSVTCTVTDYSLTSGYYWNWIRQFPGNKLEWMAYIHSSGSTHYNPSLKSRISVTRDTSKNQFFLQLNSVTTEDTATYYCARDGAYYSSWFPYWGQGTLVTVSA VL: DIVMTQSHKLMSASVGDRVSITCKASQDVGTAVAWYQQKPGRSPKLLIYWASNRHTGVPDRFTGSGSGTDFTLTISNVQSEDLADYFCQQFGSYPYTFGGGTKLEIKR	64.8	34	–	–	–	–	–	–	–
SC10.163 (antibody, V domains shown) VH: EVQLQQSGPELVKPGDSVKMSCKASGNTVTNYYMDWVKQSHGKSLEWIGYIYANNGGTSYNQKFKGKATLTVDKSSSTAYMEIHSLTSEDSAVYYCAIYYRYEFAYWGQGTLVTVSA VL: DIVMTQAAFSNPVTLGTSASISCRSSKSLLHSNGITYLYWYLQKPGQSPQLLIYQMSNLASGVPDRFSNSGSGTDFTLRISRVEAEDVGVYYCAQNLELPWTFGGGTKLEIK	91.5	90.3	–	–	–	–	–	–	–
SC10.75 (antibody, V domains shown, murine mAb; variable regions only) VH: QVQLKESGPGLVAPSQSLSITCTVTGFSLSRYSVHWIRQPPGKGLEWLGMIWGGGSTDYNSALKSRLSINKDNSKSQVFLKMNSLQTVDTAMYYCARTQFYYGHDGGYAMDYWGQGTSVTVSS VL: DIVMSQSPSSLAVSVGEKVTMSCKSSQSLLYSNNQKNYLAWYQQKPGQSPKLLIYWASSRESGVPERFTGSGSGTDFTLTISSVKAEDLAVYYCQQYYSSPYTFGGGTKLK	101	98.8	–	101%	no binding	–	–	–	–
SC10.36 (antibody, V domains shown) VH: QVQLQQSGNELVRPGSAVKISCKASGYAFSSYWMNWVKQRPGQGLEWIGQIYPGDDDSNYNGKFKGKATLTADKSSSSAYMHLSSLTSEDSAVYFCARGFATPTMDYWGQGTSVTVSS VL: not shown	40.7	21.2	–	–	–	–	–	–	–
